According to article PMC12416549 (2024):
Substitutions are numbered along the chain they refer to. Names may count otherwise.

T1: TNFR1 (Homo sapiens, UniProt P19438)
T1 chain: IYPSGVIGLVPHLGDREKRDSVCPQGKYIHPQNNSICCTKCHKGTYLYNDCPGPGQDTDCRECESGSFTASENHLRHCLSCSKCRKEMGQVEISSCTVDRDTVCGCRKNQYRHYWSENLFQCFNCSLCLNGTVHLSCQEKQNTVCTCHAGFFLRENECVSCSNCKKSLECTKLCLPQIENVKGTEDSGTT

B1: L74E (designed binder)
chain: MTLQELLREEALRRAEAEAFRYALELLAEKFPEQKEYLLDLAEEIESQIRSLSGVDVEDVRKFLDKEWAWVKEELAEHPAELAEVEAARAARLAELRAEVEAKVAA
B2: L7N (designed binder)
chain: B1 chain with L7N, E74L
B3: Y37F (designed binder)
chain: B1 chain with Y37F, E74L
B4: A90K (designed binder)
chain: B1 chain with E74L, A90K
B5: S53D (designed binder)
chain: B1 chain with S53D, E74L
B6: A94E (designed binder)
chain: B1 chain with E74L, A94E
B7: E86M (designed binder)
chain: B1 chain with E74L, E86M
B8: L75P (designed binder)
chain: B1 chain with E74L, L75P
B9: L93F (designed binder)
chain: B1 chain with E74L, L93F
B10: A102S (designed binder)
chain: B1 chain with E74L, A102S
B11: A88M (designed binder)
chain: B1 chain with E74L, A88M
B12: Y22H (designed binder)
chain: B1 chain with Y22H, E74L
B13: R14T (designed binder)
chain: B1 chain with R14T, E74L
B14: K66W (designed binder)
chain: B1 chain with K66W, E74L
B15: E67C (designed binder)
chain: B1 chain with E67C, E74L
B16: R50T (designed binder)
chain: B1 chain with R50T, E74L
B17: G54K (designed binder)
chain: B1 chain with G54K, E74L
B18: F63N (designed binder)
chain: B1 chain with F63N, E74L
B19: A94H (designed binder)
chain: B1 chain with E74L, A94H
B20: E33Y (designed binder)
chain: B1 chain with E33Y, E74L
B21: R92W (designed binder)
chain: B1 chain with E74L, R92W
B22: R89W (designed binder)
chain: B1 chain with E74L, R89W
B23: A23V (designed binder)
chain: B1 chain with A23V, E74L
B24: E29D (designed binder)
chain: B1 chain with E29D, E74L
B25: L27S (designed binder)
chain: B1 chain with L27S, E74L
B26: H78R (designed binder)
chain: B1 chain with E74L, H78R
B27: V85N (designed binder)
chain: B1 chain with E74L, V85N
B28: L82E (designed binder)
chain: B1 chain with E74L, L82E
B29: A17P (designed binder)
chain: B1 chain with A17P, E74L
B30: A83E (designed binder)
chain: B1 chain with E74L, A83E
B31: A94I (designed binder)
chain: B1 chain with E74L, A94I
B32: I45S (designed binder)
chain: B1 chain with I45S, E74L
B33: E77D (designed binder)
chain: B1 chain with E74L, E77D
B34: E29I (designed binder)
chain: B1 chain with E29I, E74L
B35: A80L (designed binder)
chain: B1 chain with E74L, A80L
B36: R97T (designed binder)
chain: B1 chain with E74L, R97T
B37: L3V (designed binder)
chain: B1 chain with L3V, E74L
B38: H78V (designed binder)
chain: B1 chain with E74L, H78V
B39: A105F (designed binder)
chain: B1 chain with E74L, A105F
B40: R21Q (designed binder)
chain: B1 chain with R21Q, E74L
B41: A23D (designed binder)
chain: B1 chain with A23D, E74L
B42: R97W (designed binder)
chain: B1 chain with E74L, R97W
B43: A15K (designed binder)
chain: B1 chain with A15K, E74L

Molecular target: T1, TNFR1
Test: yeast display SC50

Row | apparent Kd (screen) | Binder
1 | 2.48 nM | B1
2 | 24.4 nM | B2
3 | 2.48 nM | B3
4 | 0.446 nM | B4
5 | 8.56 nM | B5
6 | 0.539 nM | B6
7 | 0.79 nM | B7
8 | 2.48 nM | B8
9 | 0.539 nM | B9
10 | 0.79 nM | B10
11 | 0.718 nM | B11
12 | 0.49 nM | B12
13 | 0.49 nM | B13
14 | 0.539 nM | B14
15 | 5.84 nM | B15
16 | 0.49 nM | B16
17 | 12.5 nM | B17
18 | 2.05 nM | B18
19 | 0.446 nM | B19
20 | 0.539 nM | B20
21 | 0.539 nM | B21
22 | 0.956 nM | B22

Row | apparent Kd (screen) | Binder
23 | 0.653 nM | B23
24 | 0.49 nM | B24
25 | 0.593 nM | B25
26 | 0.49 nM | B26
27 | 0.653 nM | B27
28 | 2.73 nM | B28
29 | 0.718 nM | B29
30 | 0.593 nM | B30
31 | 0.956 nM | B31
32 | 7.78 nM | B32
33 | 0.653 nM | B33
34 | 1.16 nM | B34
35 | 0.446 nM | B35
36 | 0.539 nM | B36
37 | 0.593 nM | B37
38 | 0.869 nM | B38
39 | 0.869 nM | B39
40 | 0.539 nM | B40
41 | 2.25 nM | B41
42 | 0.49 nM | B42
43 | 0.49 nM | B43
